According to patent publication US7666644B2, “Glyphosate-N-acetyltransferase (GAT) genes” (Verdia, Inc., priority 2004, dated 2010):

Experiments:
O=C(O)CNCP(=O)(O)O = test: Standard spectrophotometric kcat and KM determination (Example 7); assay type: biochemical; settings: other: 20 mM HEPES pH 6.8, 10% ethylene glycol, 0.2 mM acetyl CoA, about 23° C.
Method: KM was calculated from the initial reaction rates obtained from concentrations of glyphosate ranging from 0.125 to 10 mM, using the Lineweaver-Burke transformation of the Michaelis-Menten equation. kcat/KM was determined by dividing the value determined for kcat by the value determined for KM.

tobacco plants = test: Herbicide spray tests of GAT expressing tobacco plants; assay type: in vivo, Nicotiana tabacum
Method: Tobacco shoots generated as described in EXAMPLE 9 were excised from the explants and transferred to basal root induction (BRI) medium composed of half-strength Murashige and Skoog (MS) medium, pH 5.7, with 1.5% sucrose, 0.3% Gelrite, 0-200 uM glyphosate and 400 ug/ml Timentin. Rooted plants and axillary shoots were clonally propagated by cutting the stem and transferring it to fresh BRI medium until the desired number of clones was obtained. Rooted plants were carefully removed from the solid medium. Prior to placing the plants into small pots of soil, the roots were washed to remove any remaining Gelrite. A protective plastic cover was kept over the plants for at least one week until the plants were well established.
To determine if GAT expressing tobacco plants could tolerate simulated field rate sprays of glyphosate, clonal lines of several events per GAT variant were tested. A typical test was set up as follows: One clone from each event was sprayed with 1 ml of solution containing the isopropylamine salt of glyphosate (Sigma P5671) and 0.125% Triton X-100, pH 6.8 such that the amount of active ingredient sprayed was equivalent to that present in commercial glyphosate products. For example, to achieve 32 oz/acre (1×) of herbicide containing 40% active ingredient (“ai”), 2.4 ul of 40% ai formulation was diluted into 1 ml water and sprayed on a plant in a 4-inch square pot (16 in^2). A mock application (0×) with surfactant only was also included. In some cases a second spray was applied 1-4 weeks later. Plants were kept in controlled growth rooms at 25° C. and 70% humidity with 16 hr light.
Seed-grown wild type plants were also sprayed. […] All 0× plants were healthy, including the non-GAT control plants. Three weeks later all of the surviving plants were sprayed with an 8× dose.

soybean plants = test: T0 soybean greenhouse glyphosate spray, plant discoloration scores; assay type: in vivo
Method: Soybean plants expressing GAT variant transgenes were produced using the method of particle gun bombardment (see Klein et al. (1987) Nature 327:70-73) using a DuPont Biolistic PDS1000/He instrument. The selection agent used during the transformation process was hygromycin. Either the hygromycin selectable marker gene remained in the transgenic events or the hygromycin gene was excised by methods known in the art. DNA fragments were prepared with a synthetic constitutive promoter, a GAT variant and PinII terminator. The selectable marker gene, comprising the 35S CaMV promoter, HPT gene and NOS terminator, was cobombarded with the GAT gene variant as described above. Bombarded soybean embryogenic suspension tissue was cultured for one week in the absence of selection agent. Embryogenic suspension tissue was placed in liquid selection medium for 6 weeks. Putative transgenic suspension tissue was sampled for PCR analysis to determine the presence of the GAT gene. Putative transgenic suspension culture tissue was maintained in selection medium for 3 weeks to obtain enough tissue for plant regeneration. Suspension tissue was matured for 4 weeks using standard procedures; matured somatic embryos were desiccated for 4-7 days and then placed on germination induction medium for 2-4 weeks. Germinated plantlets were transferred to soil in cell pack trays for 3 weeks for acclimatization. Plantlets were potted to 10-inch pots in the greenhouse for evaluation of glyphosate resistance.
To determine the level of glyphosate resistance of transgenic soybeans expressing the GAT variant transgenes, T0 plants were sprayed with glyphosate (Roundup ULTRA MAX™) in the greenhouse. Plant resistance levels were evaluated by […] • 7=minor leaf/stem discoloration • 5=worse leaf/stem discoloration • 3=severely discolored plant or dying plant • 1=dead plant
One to four plants were sent to the greenhouse from each independent transgenic event. An additional 1-2 plants per event were grown in controlled environment growth chambers for seed production and were not sprayed with glyphosate. The greenhouse plants were sprayed at 1×, 2× or 4× glyphosate (1× glyphosate=26 ounces/acre of RoundUp ULTRA MAX™) 3-4 weeks after transfer to soil. The T0 plant discoloration scores with 2× and 4× spray rates are shown in Table 10 and Table 11, respectively.

[1] = assay type: physicochemical; settings: buffer, pH 7.2
Method: The half lives of several GAT polypeptides were also measured at 37.5° C. according to the following procedure. GAT polypeptides 401 (SEQ ID NO: 6), 17-15H3 (SEQ ID NO: 601), 20-8H12 (SEQ ID NO: 739), 22-13B12 (SEQ ID NO: 781), 22-15B4 (SEQ ID NO: 946) and 22-18C5 (SEQ ID NO: 795) were incubated in a matrix of 25 mM Hepes, pH 7.2, 10 mM KCl and 10% methanol (“HKM”). At various timepoints, aliquots were withdrawn and assayed in triplicate at 22° C. using the continuous spectrophotometric assay described in Example 7 using saturating concentrations of glyphosate (20 mM for 401, 5 mM for the rest) and AcCoA (167 uM). The standard error at each time point averaged about 2.9%. GAT activity was plotted as a function of incubation time and the data was fitted to a curve for exponential decay (y=e^−x), where y is enzyme activity and x is time in hours, from which half life was calculated.

[2] = GAT activity with substrate L-aspartate (DTNB); assay type: biochemical
Method: (§1) GAT activity of several GAT polypeptides of the present invention was evaluated with respect to a number of amino acid substrates. The GAT polypeptide, AcCoA and amino substrate were incubated in 25 mM Hepes, pH 6.8, 10% ethylene glycol in the wells of a 96-well polystyrene plate. After 30 minutes, the reactions were stopped by the addition of 30 μl of 10 mM 5,5′-dithiobis-2-nitrobenzoate (DTNB) in 500 mM Tris, pH 7.5. After 2 minutes, absorbance was read at 412 nm in a Spectramax Plus plate reader (Molecular Devices, Sunnyvale, Calif.).

[3] = GAT activity with substrate L-serine (DTNB); assay type: biochemical
Method: as §1

[4] = GAT activity with other L-amino acid substrates (DTNB); assay type: biochemical
Method: as §1

[5] = 10 days after 2X glyphosate (1× = 26 ounces/acre)

GAT polypeptide (glyphosate-N-acetyltransferase), SEQ ID NO:300 (Bacillus licheniformis DSM 13 = ATCC 14580; A39T/E119K/E67Q/E68K/H57N/I132T/I135V/K58Q/L35S/S62P/V114A)
Km (O=C(O)CNCP(=O)(O)O): 650 µM
kcat (O=C(O)CNCP(=O)(O)O): 4.93 s⁻¹

GAT polypeptide (glyphosate-N-acetyltransferase), SEQ ID NO:457 (Bacillus licheniformis DSM 13 = ATCC 14580; A28V/E119K/E65Q/E67Q/E68K/G37R/I132T/I135V/I15L/I2L/K101R/K144R/K58Q/L145I/L97I/R18K/R92K/T89S/V114A/Y130F/Y45F)
Km (O=C(O)CNCP(=O)(O)O): 100 µM
kcat (O=C(O)CNCP(=O)(O)O): 1.97 s⁻¹

B1: 0—5D3: evolved GAT gene, SEQ ID NO:193 (nucleic acid)
DNA: ATGCTAGAGGTGAAACCGATTAACGCAGAGGATACCTATGAACTAAGGCATAGAATACTCAGACCAAACCAGCCGATAGAAGCGTGTATGTATGAAAGCGATTTACTTCGTGGTGCATTTCACTTAGGCGGCTATTACAGGGGCAAACTGATTTCCATAGCTTCATTCCACCAGGCCGAGCACTCAGAACTCCAAGGCCAGAAACAGTACCAGCTCCGAGGTATGGCTACCTTGGAAGGTTATCGTGAGCAGAAAGCGGGATCGAGTCTAATTAAACACGCTGAAGAAATTCTTCGTAAGAGGGGGGCGGACTTGCTTTGGTGTAATGCGCGGACATCCGCCTCAGGCTACTACAAAAAGTTAGGCTTCAGCGAGCAGGGAGAGATATTTGAAACGCCGCCAGTAGGACCTCACATCCTGATGTATAAAAGGATCACATAA
modifications: Synthetic nucleic acid sequence; 0_5D3
outcome two weeks after glyphosate spray (tobacco plants; 0.5, 2 or 4× glyphosate (1× = 32 oz/acre of 40% ai), clonally propagated events, average of 5 leaves): survived the spraying procedure without signs of glyphosate damage
outcome after second spray with an 8× dose (tobacco plants; 8× glyphosate three weeks later): survived
% EVENTS @ 3-6 (soybean plants; 10 days after 2X glyphosate): 11% (3)
% EVENTS @ 7-8 (soybean plants; [5]): 15% (4)

B2: 18-28D9c: GAT transgene, SEQ ID NO:824 (nucleic acid)
DNA: ATGATAGAGGTGAAACCGATTAACGCAGAGGATACCTATGAACTAAGGCATAGAATACTCAGACCAAACCAGCCGATAGAAGCGTGTATGTTTGAAAGCGATTTACTTCGTGGTGCATTTCACTTAGGCGGCTTTTACAGGGGCAAACTGATTTCCATAGCTTCATTCCACCAGGCCGAGCACTCGGAACTCCAAGGCCAGAAACAGTACCAGCTCCGAGGTATGGCTACCTTGGAAGGTTATCGTGAGCAGAAAGCGGGATCAACTCTAGTTAAACACGCTGAAGAAATCCTTCGTAAGAGGGGGGCGGACATGCTTTGGTGTAATGCGAGGACATCCGCCTCAGGCTACTACAAAAAGTTAGGCTTCAGCGAGCAGGGAGAGATATTTGACACGCCGCCAGTAGGACCTCACATCCTGATGTATAAAAGGATCACATAA
modifications: Synthetic nucleic acid sequence; CDS (1)...(441); 18-28D9c
% EVENTS @ 3-6 (soybean plants; 10 days after 2X glyphosate): 74% (23)
% EVENTS @ 7-8 (soybean plants; [5]): 8% (3)
% EVENTS @ 3-6 (soybean plants; 10 days after 4X glyphosate): 43% (10)
% EVENTS @ 7-8 (soybean plants; 10 days after 4X glyphosate): 8% (2)

B3: 22-15B4: GAT enzyme SEQ ID NO:789; Table 9 prints SEQ ID NO: 946 (protein)
chain: MIEVKPINAEDTYDLRHRVLRPNQPIEACMFDSDLMRSAFHLGGFYGGKLISVASFHQAEHTELQGQKQYQLRGVATLEGYREQKAGSSLVKHAEEILRKRGVDLLWCNARTSASGYYKKLGFSEQGEVFDTPPVGPHILMYKRIT
modifications: D_S00397832_GAT22-15B4
Half-life [1]: 26 h

B4: 20-8H12: evolved GAT; polypeptide SEQ ID NO:739, gene SEQ ID NO:738 (protein)
chain: MIEVKPINAEDTYELRHRVLRPNQPIEACIFESDLMRGAFHLGGFYGGRLISVASFHQAEHSELQGQKQYQLRGMATLEGYREQKAGSSLVKHAEEILRKRGADLLWCNARTSASGYYKKLGFSEQGEVFDTPPVGPHILMYKRIT
modifications: D_S00341806_GAT20-8H12
Half-life [1]: 54 h

B5: 22-18C5: GAT polypeptide, SEQ ID NO: 795 (protein)
chain: MIEVKPINAEDTYDLRHRVLRPNQPIEACMFESDLTRGAFHLGGFYGGKLISVASFHQAEHSELQGQKQYQLRGVATLEGYREQKAGTSLVKHAEEILRKRGVDLLWCNARTSASGYYRKLGFSEQGEVFDTPPVGPHILMYKRIT
modifications: D_S00398097_GAT22-18C5
Half-life [1]: 43 h

B6: 401: native GAT polypeptide corresponding to SEQ ID NO: 6 (protein, listed as Bacillus licheniformis)
chain: MIEVKPINAEDTYEIRHRILRPNQPLEACMYETDLLGGAFHLGGYYRGKLISIASFHKAEHSELEGEEQYQLRGMATLEGYREQKAGSTLIRHAEELLRKKGADLLWCNARTSVSGYYEKLGFSEQGEVYDIPPIGPHILMYKKLT
modifications: ST401 GAT
Half-life [1]: 14 h
activity with L-aspartate compared with glyphosate [2]: about as active
kcat/KM % of glyph ([2]; Substrate Aspartate): 85.5%
activity with L-serine compared with glyphosate [3]: about 4.7 times
kcat/KM % of glyph ([3]; Substrate Serine): 471%
number of amino acids with detectable activity, in addition to glyphosate [4]: 12
activity relative to activity towards glyphosate ([4]; L-alanine, 1 mM): 33%
activity relative to activity towards glyphosate ([4]; L-asparagine, 1 mM): 27%
activity relative to activity towards glyphosate ([4]; L-cysteine, 1 mM): 50%
activity relative to activity towards glyphosate ([4]; L-glutamate, 1 mM): 51%
activity relative to activity towards glyphosate ([4]; L-glutamine, 1 mM): 32%
activity relative to activity towards glyphosate ([4]; L-histidine, 1 mM): 10%
activity relative to activity towards glyphosate ([4]; L-threonine, 1 mM): 250%
activity relative to activity towards glyphosate ([4]; L-tyrosine, 1 mM): 18%
activity relative to activity towards glyphosate ([4]; L-valine, 1 mM): 12%
activity on N-methyl derivatives of amino acids ([4]; N-methyl derivatives of L-aspartate (2 mM), L-alanine (10 mM) and glycine (sarcosine, 10 mM)): No detectable activity
activity relative to activity towards glyphosate ([4]; glycine, 1 mM): 21%
activity relative to activity towards glyphosate ([4]; the other protein amino acids, either undetected or less than 3%): less than 3%
